The data set can be described thus: label from the status in PepcDB records.

With “MSSQLDECNRLLWEKCPVGLVLWRKNGALIDANSTYAAILGSTVPETLNFNYWQITPENYLASERTILEQLEQTGCHQAYEKEYLHQDGHLVPVKVSTVIIEKDGEKLMWSSVEDIS”, the protein production result is reported as “not failed”.

Regarding “MSSQVIPALPKTFSSSLDLWREKNDQLVRQAKQLTRDSRPSLRRQQSAQDTLEGLRELLLTLQGLPAAVPALPLELTVLCNCIILRASLVQAFTEDLTQDLQRGLERVLEAQHHLEPKSQQGLKELWHSVLSASSLPPELLPALHCLASLQAVFWMSTDHLEDLTLLLQTLNGSQTQSSEDLLLLLKSWSPPAEESPAPLILQDAESLRDVLLTAFACRQGFQELITGSLPHAQSNLHEAASGLCPPSVLVQVYTALGACLRKMGNPQRALLYLTEALKVGTTCALPLLEASRVYRQLGDRAAELESLELLVEALSATHSSETFKSLIEVELLLPQPDPASPLHCGTQSQAKHLLASRCLQTGRAEDAAEHYLDLLAMLLGGSETRFSPPTSSLGPCIPELCLEAAAALIQAGRALDALTVCEELLNRTSSLLPKMSSLWENARKRAKELPCCPVWVSATHLLQGQAWSQLKAQKEALSEFSQCLELLFRTLPEDKEQGSDCEQKCRSDVALKQLRVAALISRGLEWVASGQDTKALSDFLLSVQICPGNRDGSFYLLQTLKRLDRKNEASAFWREAHSQLPLEDAAGSLPLYLETCLSWIHPPNREAFLEEFGTSVLESCVL”, the protein production entry was “failed”.

“MSSRMARLGLSTYRLAGTVASPVVGLYLTYRTAKGKEDRARRLERFGYPSANRPQGPLVWFHAASVGETNAVIPLIREIRRRDIHVILTTGTITSARLAAERLGQEAIHQYVPLDLKPSVSRFLDYWQPDCAIIAESEIWPATVLELGRRRIPQILVNARMSDRSFARWRRRQSIAEALFENLALVIAQSDVDAERFRDLGAVPVITSGNLKVDTDAPPYDSAVFARYKKQIGDRKTWAAISTFDGEENAAGIVHRVLKERDRQLTIIVPRHPERSDEIEAALVKQGLKVARRTRDDVLSADVDIFLGDTIGEMGLYLRLTEIAFVGRSLFAEGGQNPLEPAMLGCAILSGGNVQNFREAYQKLARSGSARMVRDTEMLAKGVHYLLTNDEARRNMIEAGVATVHEMRGALSATVKGLEPYINPLTVKARLLPKAAAQV”: the protein production result is recorded as “failed”. Take “MSSRQQDTAPCNHRFSGSVPVFSAAPCPHPAASFISLPAGSPYDEKRFVPAPRRHVPMLNYIWSGLIIGSLLFALTVDTQELVENRFRNETALPVALDFPDGYAPDARRQPVEIRIDSATYRDVYGVNAAPDPVYAGTLVQTQEGRKVEFDPDADLPEPLATIQSFHATDDNPALRGALQGTSRTTAGVGRTETALQFEPVRFRKLNDIAQAALNFAETAASLALSLIGVLGLMLGLVKIGEEAGLIESLTGIVQPILSPLFPNVPDDHPALANISLNLLANVFGLGNAATPLGIKAMEDLQELNPSDEKASDDMVMLLALNTSSVQLVPPSLLVAIMGLQINQLFFSITLATLCSTVAGILGTLALHRLPYFRATAPHRTADAEDPDE”: the protein production entry was “failed”. The result for “MSSRTRARGSKRAAGVHTVSIPRQRGRRRAQPFVIVFPESPSLTREALGFIGRALWKGRRALAPTALALLAFAVTGLLHVMAWWSSLILAPLAAGPLVWLAVMQVRRPGRGAVVLWRAGLALLATFTAAWAALAAGFGPLAGPLDLVWLLMWIAAQTAWLFVRRSH” reads “failed”.

With “MSSSNQDISIENTDLLTEISVAYYQDGATQEEISRKFAISRAKVGRMLKQARDEGIVEITVKYHPVFSAKIEQRLIERFGVKRALVALDQPNEEAQRLQVSGLVSNYLTSTLKNGMVVTVGQGRNVSSVAHHIGVITPRDCKFVCGIGGIHPRGGMYNADHICRQLAKKYGGTSETLYAPAYAENREQKMAFMQNATVKQTLDLARKADVALVGIGDMSENSYMVDLGWFTPDEVVQSRLKQGVVGDFAGYDFFDIHGNVANTVMSDRVIGLGIEEFRPIAEVIAIAAENSKPLALLGALRTGAIDVIATSVSNALTVLNLDEQMHGNAASES”, the protein production result is “failed”.

As to “MSSSSVEQQVVQHFSHTHPLTKVDEYGEFTCGGCKTYGFGKTYRCAPCDYVLHDHCATCPFTLISFMHPQHELRLFVNGSENMCNICHRLVEGVYYHCETCGFDVHPLCTQHHQHVSYVPHPAHLLELSQCGASNTCMVCRGAILSWRYKCGPCMLDVHVECVNSSAPAATEPQMDLNTSQDPQPYNDECGGIHNYEHTNKGQVSGPSKRRRVFRFFKDVTVEVVSSIITEML”, the protein production result is recorded as “failed”. In the case of “MSSTILVLGATGTVGRHVVDGLLAKGEAVKAASRAGKPVAAAEGVAFDYARPETFGPALEGVDRAYVLLASGYVDSKGLLLPVIEAAATRKVKVVLQSVIGVDADDSIPYRQVEIALEKSDTPYVILRPNWFSDNFHTFWKPGIDHGQIALPAAEGKSSFIDARDIAASGVAVLTSSSFDGKAFNLTGPEALSYAEAAAILSEAIGKPVTYNAVSDEAFIEMLTGAGVPAGYASFLASIFYPVRQNWTAVMTGDVETLTGKAPRSLKTYAADYAAALKA”, the protein production entry is listed as “failed”. The result for “MSSTSPNLQKAIDLASKAAQEDKAGNYEEALQLYQHAVQYFLHVVKYEAQGDKAKQSIRAKCTEYLDRAEKLKEYLKNKEKKAQKPVKEGQPSPADEKGNDSDG” reads “not failed”.

“MSSVPSAGQVRRRRVFYIPGYDPIHPRRYRELYRKESAEQARISGYSVTLKPKTTKGPYGWHVRSEQDGAEVAADVEVLVWSDIVRGSMSNTIPATYAQLARTAWTYIASGVLWRLMRLRKGPVIAALYPVGMLLAQLFAALFLVWLGWRLGGLTGWPLAALAGMGVGAGAGVYLLRWFRSKDGTFFAYYLMHDYAYSARWRGANPPELEARIGDFAERIAGALASDADEVLVVGHSSGAHVGVSVLADLIRAGRVPADGPALGFLTLGQVVPMVSFLPEAQRLRADLHYLCTRDELAWVDVSAPGDGCAFALCDPVSVSGVAPATGKRWPLVLSAAFTKTLSPARWAELRWRFFRLHFQYLCAFDQVGDYDYFRITAGPQTLAARYRDRAPSKSRIERAVSKYTDMGAS”: the protein production entry is “failed”. Regarding “MSSWRPAVRTDTGWPLIRRTARCHMLRNPKNAGWCRSSAATASWRSCTVPRASAWPTSRTAVPRPMVGYQCGQVFRACCVKSQETGDLDVGGLQETDKIIEVEEEQEDPYLNDRCRGGGPCKQQCRDTGDEVVCSCFVGYQLLSDGVSCEDVNECITGSHSCRLGESCINTVGSFRCQRDSSCGTGYELTEDNSCKDIDECESGIHNCLPDFICQNTLGSFRCRPKLQCKSGFIQDALGNCIDINECLSISAPCPIGHTCINTEGSYTCQKNVPNCGRGYHLNEEGTRCVDVDECAPPAEPCGKGHRCVNSPGSFRCECKTGYYFDGISRMCVDVNECQRYPGRLCGHKCENTLGSYLCSCSVGFRLSVDGRSCEDINECSSSPCSQECANVYGSYQCYCRRGYQLSDVDGVTCEDIDECALPTGGHICSYRCINIPGSFQCSCPSSGYRLAPNGRNCQDIDECVTGIHNCSINETCFNIQGGFRCLAFECPENYRRSAATLQQEKTDTVRCIKSCRPNDVTCVFDPVHTISHTVISLPTFREFTRPEEIIFLRAITPPHPASQANIIFDITEGNLRDSFDIIKRYMDGMTVGVVRQVRPIVGPFHAVLKLEMNYVVGGVVSHRNVVNVHIFVSEYWF”, the protein production entry is “failed”.

With “MSTDFDRIYLNQSKFSGRFRIADSGLGWKISTSGGSAANQARKPFLLPATELSTVQWSRGCRGYDLKINTKNQGVIQLDGFSQDDYNLIKNDFHRRFNIQVEQREHSLRGWNWGKTDLARNEMVFALNGKPTFEIPYARINNTNLTSKNEVGIEFNIQDEEYQPAGDE”, the protein production entry was “not failed”.

“MSTDRETVRSYDAVAAEYAAEAAVMPEWVATEIDVFVTELSGSGRVLEIGSGGGRDALELEKRGMSVRRTDISKGFVELLRESGFEADLLDPLTDDLADPQRPSMPYDGIWACACLIHVARGDFGTVLGRLAEATRSGGRLHVSVREGDGEDLSTHGSAAAPRRYVETYWREPALRSALTDAGWIVNDVRRYVGRPHDRWLSVRASRA”: the protein production entry is “failed”. “MSTETAEKPGETTPESHVFEADVARLLHMMVHSVYSDKDVFLRELVSNAADACEKLRYEAITTPGLLTSDPDPRIQLRLDADNRQLILEDNGIGMSRAELIEALGTIARSGTRAFMERIEASKADAAKTGEDAQLIGQFGVGFYSCFMVADKVDVVTRRAGETQAWIWSSDGKGSYSISEIDAESAPARGTRITLHLMEDAKDYATRARVERIVKQQSGHVPVAITLVEKPGDEPTRITEGTALWTRPKSEISSEDYADFYRGIAGQYDEPALTVHFRAEGRHEYTALAFVPGTPPFDLFDPDRKGRIKLYVKRVFITDDAELLPRYLRFVRGLVDTADLPLNVSREMIQESPILSAIRKGVTNRILTSVEKLAQNEPETYKTLWENFGAVLKEGLYEDFERRSQLLGLTRFRTTTSGDDQRSLADYLKDLKPEQDSIYYLAGSNIEQLRASPQLEGFRARGIEVLLLSDQIDSFWVMNAPEFEGKTFKSVSQGAADLAKFAKADAGADSDQDSNDQAKADIAGFLALAKEQLKDQVADVRASDRLTESPVCLVAPESGYDRQLEKILAGAGQLASTSKPVLELNADHVLVKAMAGAQHTPALQNDAIHLLYDQARILDGEKPADARAFAERMGRLLEKALRA”: the protein production result was “failed”. The result for “MSTFQQPDPRDRPARLTVGVVGAGRVGPALAASLQLAGHRPVAVSGVSDTSVRRAAAMLPDVPLVTPAQVLERADLVLLTVPDDALPGLVEGLAETGAVRPGQLLVHTSGRYGTKVLDPARSAGALPLALHPAMTFTGTAVDVQRLAGCSFGVTAPDELRLAAEALVIEMGGEPEWIAEENRPLYHAALALGANHLVTLVAESMELLRTAGVEAPDHMLGPLLGAALDNALRSGDGALTGPVARGDAGTVAAHVAELRKHAPGTVPGYLAMARATADRALAHGLLKPELAEDLLGVLANGTEGDAG” reads “failed”; that for “MSTIEERTPGAVATEPVGHEGARVSINEKNVWSLGAGPAAFALLAMIVLMIASGVFFAQSINTLENDGGGTLAVTGLIASIVVFTVALVVTITSVKVVSPGHTLTVQFFGRYIGTLRRTGLSFVPPLSVTKKVSVRVRNFETNEAKVNDYNGNPINIAAIIVWQVADTAQASFSVEDFEEFLHQQAESALRHVATQHPYDSPVDGRVSLRGATDEVSEELADEVAQRAAVAGLEIVEARISSLSYAPEIAQAMLQRQQASAIVDAREKIVEGAVTMVETALDQLEQREIVDLDPERRAAMVSNLLVVLCSDTNAQPIVNAGSLYQ”, “failed”. As for “MSTKLYYIYDPMCSWCWGYRPVWDLLQQHLPKSIDVEYVAGGLAPDSDSAMPIDQQQMIQNHWRTIEQKLGTKFNYDFWRENTARRSTYNACRAAIAAHKQSCQKAMIDAIQQAYYLRALNPSDVDVLVSVAKELSEQTSPTLDVAQFIVDINSSETNKELAKQVTLARELTQQGFPSLVLDVDGVIQQIPLDYSDYKTTLAYIIKKTS”, the entry is “failed”; as for “MSTKTMKEKAVELLQKCEVVTLASVNKEGYPRPVPMSKIAAEGISTIWMSTGADSLKTIDFLSNPKAGLCFQEKGDSVALMGEVEVVTDEKLKQELWQDWFIEHFPGGPTDPGYVLLKFTANHATYWIEGTFIHKKLD”, “not failed”.

In the case of “MSTLQTPGATLYSFRRCPYAMRARLALRYAGVPMRIVEVSLKAKPAEMLALSAKGTVPVLALEDRVIDESLEIMHWALAQHDPEDWRLTADPTAQAQMAALIAENDQVFKVHLNRYKYAERYPEAPMEHYRAQGEAFLARLDSLLQQRRYLLAEHPSLADMALLPFVRQFAHVDREWFAQTPYRSLQEWLQERLASELFLAVMAKQ”, the protein production result was “failed”.

The values above are taken from a protein production outcome set (Wang et al. 2014).
